# Experimental data taken from patent US20180194839A1 (Novartis, published 2018).
# Experiments:
# [1] = target: T1, recombinant rat IL-17A (SEQ ID NO: 85) (rat, UniProt Q61453 18-150); experiment: ELISA, coated cytokine, Ab 10 µg/ml
# T1 construct: also called rratIL-17A; rIL-17A
# T1 sequence: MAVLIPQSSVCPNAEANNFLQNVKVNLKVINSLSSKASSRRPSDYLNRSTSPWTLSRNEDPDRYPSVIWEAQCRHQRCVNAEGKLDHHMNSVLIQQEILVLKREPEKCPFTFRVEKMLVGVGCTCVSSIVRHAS
# [2] = target: T2, recombinant rat IL-6 (R&D Systems Cat#506-RL-010) (rat, UniProt P20607 25-211); experiment: ELISA, coated cytokine, Ab 10 µg/ml
# T2 sequence (looked up): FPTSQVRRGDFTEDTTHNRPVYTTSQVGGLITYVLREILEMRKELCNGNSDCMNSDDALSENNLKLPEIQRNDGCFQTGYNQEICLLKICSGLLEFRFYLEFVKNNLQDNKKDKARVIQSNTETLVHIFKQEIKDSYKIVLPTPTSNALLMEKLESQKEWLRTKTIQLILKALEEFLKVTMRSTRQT
# [3] = target: recombinant rat IL-12 (R&D Systems Cat#1760-RL/CF) (rat); experiment: ELISA, coated cytokine, Ab 10 µg/ml
# [4] = target: recombinant rat IL-23 (R&D Systems Cat#3136-RL-010/CF) (rat); experiment: ELISA, coated cytokine, Ab 10 µg/ml
# [5] = target: T3, recombinant rat TNFα (R&D Systems Cat#510-RT/CF) (rat, UniProt P16599 80-235); experiment: ELISA, coated cytokine, Ab 10 µg/ml
# T3 sequence (looked up): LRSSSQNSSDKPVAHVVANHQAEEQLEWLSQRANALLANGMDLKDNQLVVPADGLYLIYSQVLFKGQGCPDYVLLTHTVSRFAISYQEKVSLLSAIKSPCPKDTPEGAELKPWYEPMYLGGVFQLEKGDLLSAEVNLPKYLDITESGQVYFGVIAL
# [6] = target: T4, recombinant rat IL-4 (R&D Systems Cat#504-RL/CF) (rat, UniProt P20096 25-147, limits assumed); experiment: ELISA, coated cytokine, Ab 10 µg/ml
# T4 sequence (looked up): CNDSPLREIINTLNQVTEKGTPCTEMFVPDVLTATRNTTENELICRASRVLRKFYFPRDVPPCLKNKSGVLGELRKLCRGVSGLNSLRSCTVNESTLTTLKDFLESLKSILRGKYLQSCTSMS
# [7] = target: T5, recombinant human IL-13 (Novartis) (human, UniProt P35225 35-146, limits assumed); experiment: ELISA, coated cytokine, Ab 10 µg/ml;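 note: antibodies incubated 3 h at room temperature on the coated wells, binding detected with alkaline phosphatase-conjugated anti-IgG secondary antibodies matching the species of each test antibody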
# T5 construct: also called huIL-13
# [8] = target: T6, recombinant human IL-12 (R&D Systems Cat#219-IL-005/CF) (human, UniProt P29459 23-219; P29460 23-328); experiment: ELISA, coated cytokine, Ab 10 µg/ml;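 note: antibodies incubated 3 h at room temperature on the coated wells, binding detected with alkaline phosphatase-conjugated anti-IgG secondary antibodies matching the species of each test antibody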
# T6 construct: also called huIL-12
# T6 sequence (looked up) 1: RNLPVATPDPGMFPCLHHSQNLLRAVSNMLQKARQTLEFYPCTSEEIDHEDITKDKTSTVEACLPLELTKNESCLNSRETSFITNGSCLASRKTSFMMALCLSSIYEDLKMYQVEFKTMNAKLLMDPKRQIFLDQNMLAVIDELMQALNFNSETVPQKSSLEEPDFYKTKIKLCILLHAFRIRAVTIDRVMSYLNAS
# T6 sequence (looked up) 2: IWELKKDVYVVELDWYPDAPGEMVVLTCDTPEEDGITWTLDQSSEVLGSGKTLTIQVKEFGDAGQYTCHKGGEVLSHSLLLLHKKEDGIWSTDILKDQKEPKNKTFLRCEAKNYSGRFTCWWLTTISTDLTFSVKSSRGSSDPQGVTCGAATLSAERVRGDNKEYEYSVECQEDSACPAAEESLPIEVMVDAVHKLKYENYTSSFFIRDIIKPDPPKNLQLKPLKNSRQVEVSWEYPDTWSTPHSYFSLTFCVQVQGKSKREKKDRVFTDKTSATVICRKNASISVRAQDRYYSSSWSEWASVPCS
# [9] = target: T7, recombinant human IL-1β (Novartis) (human, UniProt P01584 117-269); experiment: ELISA, coated cytokine, Ab 10 µg/ml;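 note: antibodies incubated 3 h at room temperature on the coated wells, binding detected with alkaline phosphatase-conjugated anti-IgG secondary antibodies matching the species of each test antibody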
# T7 construct: also called huIL1β
# [10] = target: T8, recombinant human IL-20 (Novartis) (human, UniProt Q9NYY1 25-176, limits assumed); experiment: ELISA, coated cytokine, Ab 10 µg/ml;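 note: antibodies incubated 3 h at room temperature on the coated wells, binding detected with alkaline phosphatase-conjugated anti-IgG secondary antibodies matching the species of each test antibody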
# T8 construct: also called huIL-20
# T8 sequence (looked up): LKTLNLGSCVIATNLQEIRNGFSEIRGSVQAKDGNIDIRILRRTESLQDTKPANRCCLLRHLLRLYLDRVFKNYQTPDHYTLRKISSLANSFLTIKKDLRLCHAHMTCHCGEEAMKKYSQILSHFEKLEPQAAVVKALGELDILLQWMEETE
# [11] = target: T9, recombinant human IL-17D (R&D Systems Cat#1504IL/CF) (human, UniProt Q8TAD2 18-202, limits assumed); experiment: ELISA, coated antigen
# T9 construct: also called huIL-17D; hu IL-17D
# T9 sequence (looked up): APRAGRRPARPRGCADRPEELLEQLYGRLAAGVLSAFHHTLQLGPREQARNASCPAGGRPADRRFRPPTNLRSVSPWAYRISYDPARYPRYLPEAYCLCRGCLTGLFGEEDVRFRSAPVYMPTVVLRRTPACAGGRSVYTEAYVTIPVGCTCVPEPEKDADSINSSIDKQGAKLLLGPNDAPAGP
# [12] = target: T10, recombinant human IL-17C (R&D Systems Cat#1234IL/CF) (human, UniProt Q9P0M4 19-197); experiment: ELISA, coated antigen
# T10 construct: also called huIL-17C; hu IL-17C
# T10 sequence (looked up): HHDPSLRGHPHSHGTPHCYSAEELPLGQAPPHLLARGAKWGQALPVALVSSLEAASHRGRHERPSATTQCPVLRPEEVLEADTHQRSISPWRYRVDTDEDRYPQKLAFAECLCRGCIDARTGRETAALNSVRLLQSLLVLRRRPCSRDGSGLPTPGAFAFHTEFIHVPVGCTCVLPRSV
# [13] = target: T11, recombinant human IL-17B (R&D Systems) (human, UniProt Q9UHF5 21-180); experiment: ELISA, coated antigen
# T11 construct: also called huIL-17B; hu IL-17B
# T11 sequence (looked up): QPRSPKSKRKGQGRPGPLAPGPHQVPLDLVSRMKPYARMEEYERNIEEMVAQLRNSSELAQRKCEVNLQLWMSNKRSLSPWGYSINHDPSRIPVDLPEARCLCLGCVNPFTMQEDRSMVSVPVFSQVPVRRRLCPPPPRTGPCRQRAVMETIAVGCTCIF
# T5 sequence (P35225 35-146 limits assumed): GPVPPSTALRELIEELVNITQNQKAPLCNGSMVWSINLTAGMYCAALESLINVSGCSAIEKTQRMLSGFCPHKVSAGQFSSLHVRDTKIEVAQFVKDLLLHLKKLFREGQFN
Binder,O.D. [1] [O.D.],O.D. [2] [O.D.],O.D. [3] [O.D.],O.D. [4] [O.D.],O.D. [5] [O.D.],O.D. [6] [O.D.],O.D. [7] [O.D.],O.D. [8] [O.D.],O.D. [9] [O.D.],O.D. [10] [O.D.],binding result [11],binding result [12],binding result [13]
"XAB4 (antibody, human IgG1, kappa, V domains shown, also called MB435 N56Q) VH: EVQLVESGGDLVQPGGSLRLSCAASGFTFSSYWMSWVRQAPGKGLEWVANIKQDGSEKYYVDSVKGRFTISRDNAKNSLYLQMNSLRAEDTAVYYCARDRGSLYYWGQGTLVTVSS VL: AIQLTQSPSSLSASVGDRVTITCRPSQGINWELAWYQQKPGKAPKLLIYDASSLEQGVPSRFSGSGSGTDFTLTISSLQPEDFATYYCQQFNSYPLTFGGGTKVEIKR",3.48,0.021,0.009,0.023,0.02,0.026,0.019,0.009,0.015,0.039,no binding (tested: 1 µg/ml),no binding (tested: 1 µg/ml),no binding (tested: 1 µg/ml)
"XAB1 (antibody, human IgG1, kappa, V domains shown, human IgG1/kappa monoclonal antibody; also called parental XAB1; XAB1 IgG) VH: EVQLVESGGDLVQPGGSLRLSCAASGFTFSSYWMSWVRQAPGKGLEWVANIKQDGSEKYYVDSVKGRFTISRDNAKNSLYLQMNSLRAEDTAVYYCARDRGSLYYWGQGTLVTVSS VL: AIQLTQSPSSLSASVGDRVTITCRPSQGIISALAWYQQKPGKAPKLLIYDASSLENGVPSRFSGSGSGTDFTLTISSLQPEDFATYYCQQFNSYPLTFGGGTKVEIKR",1.2,0,-0.007,0.011,0.003,0.017,0.125,-0.097,-0.11,0.335,no binding (tested: 1 µg/ml),no binding (tested: 1 µg/ml),no binding (tested: 1 µg/ml)
